# T1: StFliD_(1–467) L443R mutant (Salmonella Typhimurium, UniProt P16328 1-467, L443R)
# T1 construct: FliD of Salmonella Typhimurium, residues 1–467, with L443R; Monomer by SEC-MALS; also called StFliD L443R; FliD (L443R)
# T1 sequence: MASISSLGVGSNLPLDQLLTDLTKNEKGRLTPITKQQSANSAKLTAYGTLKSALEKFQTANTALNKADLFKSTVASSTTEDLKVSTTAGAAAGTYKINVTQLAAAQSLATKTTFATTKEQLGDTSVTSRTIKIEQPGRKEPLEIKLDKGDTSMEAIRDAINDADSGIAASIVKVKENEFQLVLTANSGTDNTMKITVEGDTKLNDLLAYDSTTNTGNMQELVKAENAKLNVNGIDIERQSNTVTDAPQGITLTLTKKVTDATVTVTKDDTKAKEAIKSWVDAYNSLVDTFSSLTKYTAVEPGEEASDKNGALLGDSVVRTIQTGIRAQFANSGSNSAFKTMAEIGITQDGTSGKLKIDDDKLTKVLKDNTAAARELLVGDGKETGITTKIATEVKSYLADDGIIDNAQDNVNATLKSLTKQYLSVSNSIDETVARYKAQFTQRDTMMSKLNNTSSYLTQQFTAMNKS
# B1: StFliT_(1–94), C-terminus-truncated FliT from Salmonella Typhimurium (domain or fragment)
# chain: MTSTVEFINRWQRIALLSQSLLELAQRGEWDLLLQQEVSYLQSIETVMEKQTPPGITRSIQDMVAGYIKQTLDNEQLLKGLLQQRLDELSSLIG
# notes: FliT (flagellar export chaperone) of Salmonella Typhimurium, residues 1–94; At the glutathione-Sepharose step of the co-purification the GST tag was still on; it was cut by TEV protease before ion exchange and gel filtration; source: E. coli BL21(DE3); purified alone (glutathione-Sepharose, TEV cleavage, gel filtration) for ITC; co-expressed with StFliD constructs and co-purified for the …
# B2: StFliD_(1–467), full-length FliD from Salmonella Typhimurium, wild type (natural protein)
# chain: MASISSLGVGSNLPLDQLLTDLTKNEKGRLTPITKQQSANSAKLTAYGTLKSALEKFQTANTALNKADLFKSTVASSTTEDLKVSTTAGAAAGTYKINVTQLAAAQSLATKTTFATTKEQLGDTSVTSRTIKIEQPGRKEPLEIKLDKGDTSMEAIRDAINDADSGIAASIVKVKENEFQLVLTANSGTDNTMKITVEGDTKLNDLLAYDSTTNTGNMQELVKAENAKLNVNGIDIERQSNTVTDAPQGITLTLTKKVTDATVTVTKDDTKAKEAIKSWVDAYNSLVDTFSSLTKYTAVEPGEEASDKNGALLGDSVVRTIQTGIRAQFANSGSNSAFKTMAEIGITQDGTSGKLKIDDDKLTKVLKDNTAAARELLVGDGKETGITTKIATEVKSYLADDGIIDNAQDNVNATLKSLTKQYLSVSNSIDETVARYKAQFTQLDTMMSKLNNTSSYLTQQFTAMNKS
# notes: FliD (HAP2, flagellar filament capping protein) of Salmonella Typhimurium, residues 1–467; also called StFliD WT; HAP2; source: E. coli BL21(DE3); co-expressed with StFliT 1–94 and co-purified (glutathione-Sepharose, TEV, Hitrap Q, Superdex 200) for the complex
# Legend:
# [1] = molecular target: B2; test: ITC; 170 μM StFliT 1–94 injected (2.5 μL, every 200 s) into 26 μM StFliD in the cell; 298 K; buffer A (20 mM Tris-HCl pH 8.0, 200 mM NaCl); conditions: both partners purified
# [2] = molecular target: T1, StFliD_(1–467) L443R mutant; test: as above; conditions: both partners purified
# [3] = molecular target: B1; test: SEC-MALS; co-purified complexes (Fig. 1b), concentration not given; Superdex 200 10/300 GL in buffer A (20 mM Tris-HCl pH 8.0, 200 mM NaCl), 0.4 mL/min; conditions: both partners purified
# [4] = molecular target: the molecule itself; test: SAXS; purified proteins and co-purified complexes, 1.0–10.0 mg/mL, 4 °C; ab initio envelopes (DAMMIF)
# [5] = molecular target: B1; test: SEC-MALS; samples at 100 μM (Fig. 2c); Superdex 200 10/300 GL in buffer A (20 mM Tris-HCl pH 8.0, 200 mM NaCl), 0.4 mL/min; conditions: both partners purified
# [6] = molecular target: B1; test: SEC-MALS; samples at 10 μM (Fig. 2c); Superdex 200 10/300 GL in buffer A (20 mM Tris-HCl pH 8.0, 200 mM NaCl), 0.4 mL/min; conditions: both partners purified
# [7] = molecular target: the molecule itself; test: SEC-MALS; samples at 100 μM (Fig. 2c); Superdex 200 10/300 GL in buffer A (20 mM Tris-HCl pH 8.0, 200 mM NaCl), 0.4 mL/min
binder,measurement,setting,value
B1,Kd,[1],235.1 ± 0.8 nM
same,Kd,[2],3010 ± 100 nM
"StFliD_(401–467) (domain or fragment, FliD of Salmonella Typhimurium, residues 401–467; The eluate was cleaved by TEV protease; also called C-terminal helix of StFliD; source: E. coli BL21(DE3), co-expressed with StFliT 1–94, co-purified (glutathione-Sepharose, TEV, Hitrap Q, Superdex 200)) DGIIDNAQDNVNATLKSLTKQYLSVSNSIDETVARYKAQFTQLDTMMSKLNNTSSYLTQQFTAMNKS",stoichiometry N,[3],1 StFliD per StFliT
"StFliD_(45–467) (domain or fragment, FliD of Salmonella Typhimurium, residues 45–467) TAYGTLKSALEKFQTANTALNKADLFKSTVASSTTEDLKVSTTAGAAAGTYKINVTQLAAAQSLATKTTFATTKEQLGDTSVTSRTIKIEQPGRKEPLEIKLDKGDTSMEAIRDAINDADSGIAASIVKVKENEFQLVLTANSGTDNTMKITVEGDTKLNDLLAYDSTTNTGNMQELVKAENAKLNVNGIDIERQSNTVTDAPQGITLTLTKKVTDATVTVTKDDTKAKEAIKSWVDAYNSLVDTFSSLTKYTAVEPGEEASDKNGALLGDSVVRTIQTGIRAQFANSGSNSAFKTMAEIGITQDGTSGKLKIDDDKLTKVLKDNTAAARELLVGDGKETGITTKIATEVKSYLADDGIIDNAQDNVNATLKSLTKQYLSVSNSIDETVARYKAQFTQLDTMMSKLNNTSSYLTQQFTAMNKS",binding result,[4],binds
B2,stoichiometry N,[5],1 StFliD per StFliT (2:2)
same,stoichiometry N,[6],1 StFliD per StFliT
"StFliD_(1–300) (domain or fragment, FliD of Salmonella Typhimurium, residues 1–300; Dimer at 100 μM by SEC-MALS; source: cloned into pRSF-duet) MASISSLGVGSNLPLDQLLTDLTKNEKGRLTPITKQQSANSAKLTAYGTLKSALEKFQTANTALNKADLFKSTVASSTTEDLKVSTTAGAAAGTYKINVTQLAAAQSLATKTTFATTKEQLGDTSVTSRTIKIEQPGRKEPLEIKLDKGDTSMEAIRDAINDADSGIAASIVKVKENEFQLVLTANSGTDNTMKITVEGDTKLNDLLAYDSTTNTGNMQELVKAENAKLNVNGIDIERQSNTVTDAPQGITLTLTKKVTDATVTVTKDDTKAKEAIKSWVDAYNSLVDTFSSLTKYTAVE",stoichiometry N,[7],2

# Reference: PMC5493677, “The role of the FliD C-terminal domain in pentamer formation and interaction with FliT” (Scientific Reports, 2017)
